Reference: patent US5886163, “HIV-1 antigens, antibody compositions related thereto, and therapeutic and prophylactic uses thereof” (Progenics Pharmaceuticals, Inc., dated 1999)

Molecular target: human CD4 on the membrane surface of DG44 #3 cells (human, UniProt P01730)
Assay: FACS on DG44 #3 cells (CHO cells transfected with human CD4 cDNA)

B1: HIV-1 gp120LAI (ligand)
chain: not shown
binding result: binds
